Measured values published in publication PMC3947336.

How the values were obtained:
[1] = molecular target: Bxz2 Int (mycobacteriophage Bxz2 serine-integrase, gene 34) (mycobacteriophage Bxz2); test: native gel or EMSA
[2] = molecular target: Bxz2 MBP-Int fusion protein (mycobacteriophage Bxz2); test: native gel or EMSA

Substance	stoichiometry N [1]	stoichiometry N [2]
Bxz2 Int (mycobacteriophage Bxz2 serine-integrase, gene 34) (enzyme)	2	–
Bxz2 MBP-Int fusion protein (enzyme)	–	2
